Tested on: Escherichia coli TOP10
Assay: shrunken log2 fold change of peptide-encoding DNA abundance (4.5 h post-induction vs induction); higher = less antimicrobial activity (less host growth inhibition)
Conditions: time post-induction: 4.5 h; library: site-saturation at positions 5, 18, 19, 20
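Note: peptides expressed intracellularly from a pBAD plasmid library in pooled LB shake-flask culture, induced with 0.3% L-arabinose, DNA abundance read by NGS, three biological replicates, DESeq2 with apeglm shrinkage.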

Row | Sequence | shrunken log2 fold change
1 | RRIRERPPRLPRPRPRPWDPPRP | 0.173
2 | RRIRFRPPRLPRPRPRPHMSPRP | 0.0344
3 | RRIRLRPPRLPRPRPRPGSKPRP | -0.559
4 | RRIRDRPPRLPRPRPRPAHLPRP | 0.0723
5 | RRIRNRPPRLPRPRPRPQHSPRP | -0.428
6 | RRIRDRPPRLPRPRPRPNVVPRP | -0.0354
7 | RRIRARPPRLPRPRPRPYFPPRP | -0.418
8 | RRIRYRPPRLPRPRPRPNMLPRP | -1.22
9 | RRIRGRPPRLPRPRPRPMERPRP | 1.36
10 | RRIRTRPPRLPRPRPRPMDYPRP | -0.00965
11 | RRIRRRPPRLPRPRPRPQRCPRP | 0.177
12 | RRIRLRPPRLPRPRPRPYQDPRP | -0.106
13 | RRIRHRPPRLPRPRPRPVFHPRP | -0.345
14 | RRIRCRPPRLPRPRPRPCAKPRP | -0.168
15 | RRIRPRPPRLPRPRPRPRPHPRP | 0.499
16 | RRIRFRPPRLPRPRPRPVYGPRP | -0.286
17 | RRIRDRPPRLPRPRPRPRGYPRP | 0.03
18 | RRIRERPPRLPRPRPRPFFLPRP | -0.384
19 | RRIRNRPPRLPRPRPRPENRPRP | -0.0205
20 | RRIRSRPPRLPRPRPRPYWIPRP | -0.267
21 | RRIRLRPPRLPRPRPRPSEAPRP | 0.12
22 | RRIRCRPPRLPRPRPRPMMDPRP | -0.117
23 | RRIRPRPPRLPRPRPRPCWAPRP | 0.21

Row | Sequence | shrunken log2 fold change
24 | RRIRLRPPRLPRPRPRPTIPPRP | 0.0895
25 | RRIRLRPPRLPRPRPRPVVTPRP | -0.0571
26 | RRIRDRPPRLPRPRPRPDQRPRP | -0.00174
27 | RRIRPRPPRLPRPRPRPPGPPRP | 0.576
28 | RRIRSRPPRLPRPRPRPCQHPRP | -0.128
29 | RRIRGRPPRLPRPRPRPIRPPRP | 0.209
30 | RRIRFRPPRLPRPRPRPLRQPRP | 0.0138
31 | RRIRARPPRLPRPRPRPQTGPRP | 0.242
32 | RRIRERPPRLPRPRPRPHHTPRP | -0.268
33 | RRIRARPPRLPRPRPRPYPSPRP | -0.0433
34 | RRIRKRPPRLPRPRPRPAVGPRP | 0.472
35 | RRIRMRPPRLPRPRPRPLDGPRP | 0.844
36 | RRIRGRPPRLPRPRPRPIMQPRP | 0.105
37 | RRIRQRPPRLPRPRPRPLSEPRP | 0.0232
38 | RRIRCRPPRLPRPRPRPKLVPRP | -0.152
39 | RRIRCRPPRLPRPRPRPLGQPRP | 0.16
40 | RRIRWRPPRLPRPRPRPSHDPRP | 0.023
41 | RRIRPRPPRLPRPRPRPGWVPRP | 0.405
42 | RRIRRRPPRLPRPRPRPRRTPRP | 0.46
43 | RRIRQRPPRLPRPRPRPHRWPRP | 0.057
44 | RRIRKRPPRLPRPRPRPYKPPRP | -0.0134
45 | RRIRLRPPRLPRPRPRPFPRPRP | -0.163
46 | RRIRYRPPRLPRPRPRPASEPRP | -0.0202

Row | Sequence | shrunken log2 fold change
47 | RRIRNRPPRLPRPRPRPIWDPRP | -0.14
48 | RRIRERPPRLPRPRPRPEMRPRP | 0.151
49 | RRIRGRPPRLPRPRPRPYTEPRP | -0.0586
50 | RRIRERPPRLPRPRPRPNSRPRP | -0.481
51 | RRIRIRPPRLPRPRPRPTTTPRP | -0.00987
52 | RRIRNRPPRLPRPRPRPTMEPRP | 0.274
53 | RRIRERPPRLPRPRPRPNAPPRP | 0.0774
54 | RRIRFRPPRLPRPRPRPQVHPRP | -0.262
55 | RRIRARPPRLPRPRPRPNKVPRP | -0.108
56 | RRIRFRPPRLPRPRPRPWILPRP | -0.144
57 | RRIRTRPPRLPRPRPRPPWNPRP | -0.288
58 | RRIRHRPPRLPRPRPRPHWYPRP | -0.347
59 | RRIRGRPPRLPRPRPRPKFDPRP | 0.867
60 | RRIRCRPPRLPRPRPRPLGTPRP | -0.583
61 | RRIRFRPPRLPRPRPRPRGSPRP | 0.432
62 | RRIRSRPPRLPRPRPRPGIIPRP | -0.454
63 | RRIRVRPPRLPRPRPRPQAYPRP | -0.00917
64 | RRIRCRPPRLPRPRPRPHDWPRP | 0.112
65 | RRIRNRPPRLPRPRPRPNHNPRP | -0.858
66 | RRIRYRPPRLPRPRPRPMMKPRP | -0.0161
67 | RRIRVRPPRLPRPRPRPFSLPRP | -0.348
68 | RRIRWRPPRLPRPRPRPNLVPRP | -0.0198
69 | RRIRMRPPRLPRPRPRPMKYPRP | 0.0979

Row | Sequence | shrunken log2 fold change
70 | RRIRPRPPRLPRPRPRPKQVPRP | -0.0541
71 | RRIRGRPPRLPRPRPRPGTYPRP | -0.201
72 | RRIRHRPPRLPRPRPRPHRPPRP | -0.133
73 | RRIRFRPPRLPRPRPRPHQPPRP | 0.575
74 | RRIRRRPPRLPRPRPRPGTFPRP | -0.578
75 | RRIRARPPRLPRPRPRPTCSPRP | 0.483
76 | RRIRNRPPRLPRPRPRPNIDPRP | -0.936
77 | RRIRPRPPRLPRPRPRPCEPPRP | -0.00302
78 | RRIRTRPPRLPRPRPRPFQSPRP | 0.00942
79 | RRIRNRPPRLPRPRPRPAHCPRP | -0.424
80 | RRIRFRPPRLPRPRPRPMGCPRP | 0.125
81 | RRIRGRPPRLPRPRPRPIFAPRP | 0.609
82 | RRIRFRPPRLPRPRPRPSFKPRP | -0.683
83 | RRIRFRPPRLPRPRPRPTNWPRP | 0.426
84 | RRIRGRPPRLPRPRPRPWSCPRP | 0.202
85 | RRIRKRPPRLPRPRPRPWRKPRP | 0.0487
86 | RRIRNRPPRLPRPRPRPCVNPRP | -0.282
87 | RRIRTRPPRLPRPRPRPRLGPRP | 0.169
88 | RRIRQRPPRLPRPRPRPGAWPRP | 0.256
89 | RRIRPRPPRLPRPRPRPTFFPRP | 0.212
90 | RRIRKRPPRLPRPRPRPFYHPRP | 0.0754
91 | RRIRPRPPRLPRPRPRPDRHPRP | -0.31

Reference: the supplement of paper PMC9112550, “Optimization of the antimicrobial peptide Bac7 by deep mutational scanning” (BMC Biology, 2022)
